Results on five substances are retold here after patent US20240174992A1, “SPLIT MODIFIED DEHALOGENASE VARIANTS” (Promega Corporation, priority 2022, published 2024).

Some targets named below: [196-297]-FRB (UniProt P42345); HT(158-297)-FRB (UniProt P42345); HT(146-297)-FRB (UniProt P42345); HaloTag[22-297](M2F)-FRB (UniProt P42345).
Holding throughout (assay): cell-based or functional assay
Experiment [1] addresses HT(23-297)-FRB fragment fused to LgBiT (UniProt P42345).
Experiment [2] concerns the target HaloTag[22-297](Q145H+P154R)-FRB (UniProt P42345).

Chain of HaloTag[22-297](Q145H+P154R)-FRB (P42345 other isoform, or with tags, fused parts or gaps Q145H P154R Q145H P154R): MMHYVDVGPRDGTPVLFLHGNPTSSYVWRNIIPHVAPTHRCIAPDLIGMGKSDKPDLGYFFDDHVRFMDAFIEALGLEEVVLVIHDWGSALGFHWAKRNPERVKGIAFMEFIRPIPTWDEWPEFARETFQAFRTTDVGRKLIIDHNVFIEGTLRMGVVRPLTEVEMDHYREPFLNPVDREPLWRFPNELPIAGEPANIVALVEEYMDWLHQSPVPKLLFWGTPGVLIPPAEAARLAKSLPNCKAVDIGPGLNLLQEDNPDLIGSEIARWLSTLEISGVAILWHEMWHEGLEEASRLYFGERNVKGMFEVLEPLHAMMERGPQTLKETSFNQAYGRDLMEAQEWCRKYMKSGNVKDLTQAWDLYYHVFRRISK
Chain of EGFP-FKBP-HaloTag[3-19] (P62942 other isoform, or with tags, fused parts or gaps): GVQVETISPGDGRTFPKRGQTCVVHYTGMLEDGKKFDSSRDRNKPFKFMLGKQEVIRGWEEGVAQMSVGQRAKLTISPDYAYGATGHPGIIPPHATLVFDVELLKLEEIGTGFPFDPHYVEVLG
Chain of HT(23-297)-FRB fragment fused to LgBiT (P42345 other isoform, or with tags, fused parts or gaps): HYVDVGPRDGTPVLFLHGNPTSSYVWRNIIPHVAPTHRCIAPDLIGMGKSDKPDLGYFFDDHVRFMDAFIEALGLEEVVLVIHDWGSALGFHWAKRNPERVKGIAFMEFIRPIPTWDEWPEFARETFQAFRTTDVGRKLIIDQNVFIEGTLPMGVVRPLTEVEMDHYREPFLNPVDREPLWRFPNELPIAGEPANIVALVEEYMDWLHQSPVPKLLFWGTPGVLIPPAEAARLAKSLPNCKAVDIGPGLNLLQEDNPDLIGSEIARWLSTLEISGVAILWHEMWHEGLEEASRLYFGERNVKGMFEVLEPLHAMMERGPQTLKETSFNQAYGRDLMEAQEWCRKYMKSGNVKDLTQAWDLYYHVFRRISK
Chain of FKBP-HT(1-33) fragment as SmBiT or HiBiT fragment fusions (P62942 other isoform, or with tags, fused parts or gaps): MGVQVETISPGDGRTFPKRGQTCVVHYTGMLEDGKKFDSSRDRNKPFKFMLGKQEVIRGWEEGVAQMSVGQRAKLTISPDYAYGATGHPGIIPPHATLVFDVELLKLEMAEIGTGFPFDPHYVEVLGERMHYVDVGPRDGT
Chain of [196-297]-FRB (P42345 other isoform, or with tags, fused parts or gaps limits assumed): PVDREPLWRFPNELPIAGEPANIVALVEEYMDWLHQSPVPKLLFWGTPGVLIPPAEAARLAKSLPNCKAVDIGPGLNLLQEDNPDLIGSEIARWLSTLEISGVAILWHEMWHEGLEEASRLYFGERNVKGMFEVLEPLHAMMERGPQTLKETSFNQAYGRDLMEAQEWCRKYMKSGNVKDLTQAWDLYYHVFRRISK
Chain of HaloTag[22-297](M2F)-FRB (P42345 other isoform, or with tags, fused parts or gaps): as the sequence (P42345 other isoform, or with tags, fused parts or gaps Q145H P154R Q145H P154R) above, with M2F, H145Q, R154P counted along it
Chain of [1-195]-FKBP (P62942 other isoform, or with tags, fused parts or gaps): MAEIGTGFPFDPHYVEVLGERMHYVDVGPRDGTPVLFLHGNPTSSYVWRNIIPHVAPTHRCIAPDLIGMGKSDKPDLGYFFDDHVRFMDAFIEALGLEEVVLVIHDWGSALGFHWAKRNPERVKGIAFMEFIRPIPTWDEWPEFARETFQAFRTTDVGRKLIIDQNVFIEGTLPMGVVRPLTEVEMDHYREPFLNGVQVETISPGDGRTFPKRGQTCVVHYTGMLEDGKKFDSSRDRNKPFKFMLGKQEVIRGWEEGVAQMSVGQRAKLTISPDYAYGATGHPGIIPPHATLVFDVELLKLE
Chain of HT(1-157)-FKBP (P62942 other isoform, or with tags, fused parts or gaps): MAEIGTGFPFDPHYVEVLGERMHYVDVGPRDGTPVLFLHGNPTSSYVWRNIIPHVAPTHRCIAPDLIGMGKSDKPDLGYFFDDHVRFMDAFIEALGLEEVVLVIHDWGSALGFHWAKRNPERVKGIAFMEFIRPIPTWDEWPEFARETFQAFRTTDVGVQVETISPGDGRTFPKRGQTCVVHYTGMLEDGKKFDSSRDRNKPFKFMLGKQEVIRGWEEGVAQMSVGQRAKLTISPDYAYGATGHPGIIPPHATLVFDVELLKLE
Chain of HT(146-297)-FRB (P42345 other isoform, or with tags, fused parts or gaps limits assumed): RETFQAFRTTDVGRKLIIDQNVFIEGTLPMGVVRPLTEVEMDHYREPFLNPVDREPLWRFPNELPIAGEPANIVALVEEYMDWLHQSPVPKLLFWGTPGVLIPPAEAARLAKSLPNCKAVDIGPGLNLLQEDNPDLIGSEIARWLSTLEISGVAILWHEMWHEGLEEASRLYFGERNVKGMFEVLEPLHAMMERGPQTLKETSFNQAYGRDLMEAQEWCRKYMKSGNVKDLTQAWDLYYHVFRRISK
Chain of HT(158-297)-FRB (P42345 other isoform, or with tags, fused parts or gaps limits assumed): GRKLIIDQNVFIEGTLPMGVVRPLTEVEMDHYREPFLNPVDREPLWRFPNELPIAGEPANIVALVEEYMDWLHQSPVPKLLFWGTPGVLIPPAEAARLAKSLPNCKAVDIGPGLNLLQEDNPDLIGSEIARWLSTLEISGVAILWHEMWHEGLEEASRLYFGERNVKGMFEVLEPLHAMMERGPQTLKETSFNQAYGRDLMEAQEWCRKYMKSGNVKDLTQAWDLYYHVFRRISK
Chain of HT(1-145)-FKBP (P62942 other isoform, or with tags, fused parts or gaps): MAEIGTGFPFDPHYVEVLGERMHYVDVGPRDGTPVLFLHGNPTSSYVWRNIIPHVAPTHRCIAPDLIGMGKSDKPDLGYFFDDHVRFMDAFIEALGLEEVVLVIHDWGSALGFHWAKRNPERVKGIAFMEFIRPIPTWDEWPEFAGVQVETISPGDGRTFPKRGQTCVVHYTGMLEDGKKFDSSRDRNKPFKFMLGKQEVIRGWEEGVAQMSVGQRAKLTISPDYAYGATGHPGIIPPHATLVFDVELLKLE

In experiment [196-297]-FRB, “[1-195]-FKBP (from UniProt P62942 2-108)” yielded a fold increase in JF646 fluorescence with 50 nM rapamycin (E. coli lysates) of 4.7 fold; a fold increase of JF646 and JF585 fluorescence in live HeLa cells with 50 nM rapamycin of less than 2 fold.
With “HT(1-157)-FKBP (from UniProt P62942 2-108)”, the fold increase of JF646 and JF585 fluorescence in live HeLa cells with 50 nM rapamycin with HT(158-297)-FRB was less than 2 fold.
In turn, “HT(1-145)-FKBP (from UniProt P62942 2-108)” registered a fold increase of JF646 and JF585 fluorescence in live HeLa cells with 50 nM rapamycin with HT(146-297)-FRB of less than 2 fold.
For the substance “FKBP-HT(1-33) fragment as SmBiT or HiBiT fragment fusions (from UniProt P62942 1-108)”, the fold increase in NanoBiT luminescence on addition of rapamycin in experiment [1] fell in the range of 100 to 250 fold.
For “EGFP-FKBP-HaloTag[3-19] (from UniProt P62942 2-108)”, in the experiment with HaloTag[22-297](M2F)-FRB, the S:B ratio in +rapamycin/-rapamycin conditions, live HeLa imaging was 6.7 and the signal-to-background ratio, complemented split HaloTag with rapamycin over the large HaloTag alone stood at 16. Further, in experiment [2], the S:B ratio in +rapamycin/-rapamycin conditions, live HeLa imaging was 4; the fold response of JF646 fluorescence to rapamycin, live HeLa imaging worked out at 25 fold; the signal-to-background ratio, complemented split HaloTag with rapamycin over the large HaloTag alone stood at 5.7.
